From patent US20130171159

Tested on: T1, Twist1
T1 sequence: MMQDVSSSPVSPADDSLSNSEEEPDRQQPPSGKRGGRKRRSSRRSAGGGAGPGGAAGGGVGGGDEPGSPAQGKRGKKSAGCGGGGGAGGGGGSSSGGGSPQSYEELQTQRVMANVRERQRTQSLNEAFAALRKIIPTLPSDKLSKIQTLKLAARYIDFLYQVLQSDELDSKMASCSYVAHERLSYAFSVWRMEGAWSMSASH

Akt (protein kinase B), Akt1 and Akt2 of mouse embryonic fibroblasts
Phosphorylation of Twist1 on S42 in Akt1/2-depleted versus wild-type MEFs: Phosphorylation of Twist1 was not detected in Akt1/2-depleted MEFs under basal conditions or after insulin stimulation, but was high in stimulated wild-type MEFs
